Experimental findings from PMC8639466 are described below.

The target of data set [1] is hSSRP1-PH2 (Leu101-Thr195) (human). As to the kind of experiment: SEC; molecular weight calibration of the single protein in solution.
In another data set the target is hSSRP1-HMG546-616 (Homo sapiens, UniProt Q08945 546-616). As to the kind of experiment: EMSA; EMSA: 5 uM DNA, 137 mM NaCl, 2.7 mM KCl, 10 mM Na2HPO4, 2 mM KH2PO4 pH 7.4, 30 min on ice, 12% native PAGE; single-molecule: 10 mM Tris, 20 mM EDTA, 25 mM KCl. Particulars: protein: recombinant; tags: GST or His-SUMO fusion vector; GST cleaved; label: 5'-FAM on strand 1; blunt.
hSSRP1-HMG546-616, sequence (Q08945 546-616): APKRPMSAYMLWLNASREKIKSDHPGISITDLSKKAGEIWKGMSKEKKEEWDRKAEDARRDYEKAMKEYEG

A further data set addresses hSSRP1-HMG520-616 (Homo sapiens, UniProt Q08945 520-616). The data set is described as above. To be noted: protein: recombinant; tags: GST or His-SUMO fusion vector; GST cleaved; label: 5'-FAM on strand 1; blunt.

hSSRP1-HMG520-616, sequence (Q08945 520-616): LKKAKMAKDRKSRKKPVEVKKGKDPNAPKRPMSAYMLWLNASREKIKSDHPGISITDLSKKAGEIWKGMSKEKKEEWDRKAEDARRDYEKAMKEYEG

“hSSRP1-PH2 (Leu101-Thr195) (domain or fragment)” came in with a stoichiometry N in data set [1] of 4.

B1: 15 bp FAM GT-rich dsDNA (dsDNA)
DNA 1: GGGGTGATTGTTCAG
DNA 2: CTGAACAATCACCCC
On to B1, for which the values for the binding result with hSSRP1-HMG546-616 and in the data set with hSSRP1-HMG520-616 were “no binding” and “binds”, respectively.
